From the Immune Epitope Database (IEDB)

target: HLA-A*02:01; test: IEDB peptide-MHC binding, cellular MHC/competitive/fluorescence; ≥ and ≤ were set here for values at or beyond the usual limits of such assays; conditions: source organism: Influenza A virus

Compared with AAFEDLRL, AAFEDLRV is lower in IC50: at least 70 µM for the first, 31.4 µM for the second.

First: ALSYSAGA
Second: ALSYSTGA
The IC50 of the first is lower: 39.3 µM for the first, at least 70 µM for the second. The first is the more potent here.

Compared with ATAILRKA, ATALANTI is 2.4-fold lower in IC50: 52.9 µM for the first, 21.9 µM for the second. The second is the more potent here.

First: ATKRIRMA
Second: ATRRMIQL
The IC50 of the first is lower: 42.9 µM for the first, at least 70 µM for the second.

ATVSADPL and ATYQRTRA cannot be ordered by IC50: at least 70 µM for the first, at least 70 µM for the second.

Compared with AVPNGTLV, GLQSSDDFA is lower in IC50: at least 70 µM for the first, 7.88 µM for the second. The second is the more potent here.

Compared with TVQIIKLL, WILWISFAIS is 2.2-fold lower in IC50: 47.2 µM for the first, 21.2 µM for the second. The second is the more potent here.

same assay, conditions: source organism: Mammarenavirus choriomeningitidis

Sequence GTMPSLTMAC has an IC50 of 34.7 µM.

same assay, conditions: source organism: Mammarenavirus guanaritoense

YCLDFLFDV gave an IC50 of 40.7 µM.

same assay, conditions: source organism: Vaccinia virus WR

Going from AARLKRSAT to AATKRYPGVM, the IC50 falls from at least 70 µM to 67.2 µM. The second is the more potent here.

Going from AIDRQVSVKL to AIKQYGDIDL, the IC50 rises from 14 µM to 45.8 µM (3.3-fold).

Going from AIKSNNHLT to AINKCVDIFT, the IC50 falls from 27.2 µM to 15.9 µM (1.7-fold). The second is the more potent here.

ALEPRKEIDV and ATQFNFNGHT are within 1.5-fold of each other in IC50: 27.2 µM for the first, 38.6 µM for the second.

Compared with AVSVYGAIT, CLEAKTHFST is 6.9-fold higher in IC50: 7.23 µM for the first, 49.7 µM for the second. The first is the more potent here.

Compared with CTEETKRNIA, CVRLNNPVIL is lower in IC50: at least 70 µM for the first, 13.4 µM for the second.

First: CVRNLEELTT
Second: DAKRNSKSL
The IC50 of the first is lower: 45.2 µM for the first, at least 70 µM for the second.

First: DIDLLFNEKL
Second: DILQMREIIT
The IC50 of the first is 5.4-fold lower: 5.79 µM for the first, 31.1 µM for the second.

DIMLPESDL and DISVNASKTI are within 1.5-fold of each other in IC50: 12.9 µM for the first, 14.7 µM for the second.

First: DIVSDSKKIM
Second: DLAIKQYGDI
The IC50 of the first is lower: 64.6 µM for the first, at least 70 µM for the second. The first is the more potent here.

DLDKVYEIL and DMICCDSRIV are within 1.5-fold of each other in IC50: 29.7 µM for the first, 34.7 µM for the second.

Compared with DVCKKNLDL, DVEKEKFVAT is 1.5-fold higher in IC50: 19.5 µM for the first, 30.2 µM for the second. The first is the more potent here.

Compared with DVEKRILNT, DVGCLLTDT is higher in IC50: 9.33 µM for the first, at least 70 µM for the second.

Going from DVGCLLTDTI to DVKVLAARL, the IC50 rises from 6.84 µM to 12 µM (1.8-fold).

Going from DVNEEYTEAA to EAKTHFSTT, the IC50 falls from 42.4 µM to 27.7 µM (1.5-fold).

EIDVSEVKT and EIITGNKVKT cannot be ordered by IC50: at least 70 µM for the first, at least 70 µM for the second.

First: ELEKCTSEI
Second: ELTNKKYRCM
The IC50 of the first is lower: 24.8 µM for the first, at least 70 µM for the second.

Going from ELTSNCTRT to ELVMDKNHAI, the IC50 rises from 48.7 µM to at least 70 µM.

First: EMQLKIDKLT
Second: FASADNHPKM
The IC50 of the first is lower: 55.9 µM for the first, at least 70 µM for the second.

First: GANGSTAEQL
Second: GIDTSNNIA
The IC50 of the first is 3.9-fold higher: 67.6 µM for the first, 17.3 µM for the second. The second is the more potent here.

Compared with GTKGKLYIAL, VAEHRFENM is higher in IC50: 16.6 µM for the first, at least 70 µM for the second.

With YTEAAAATCA the IC50 was 36.5 µM.

target: HLA-A*02:02; test: as above; conditions: source organism: Influenza A virus

First: AAFEDLRL
Second: AAFEDLRV
The IC50 of the first is 1.6-fold lower: 17.5 µM for the first, 28.8 µM for the second.

Going from ALSYSAGA to ALSYSTGA, the IC50 rises from 16.9 µM to at least 70 µM.

ATAILRKA and ATALANTI are within 1.5-fold of each other in IC50: 61.8 µM for the first, 42.9 µM for the second.

Compared with ATKRIRMA, ATRRMIQL is higher in IC50: 59.4 µM for the first, at least 70 µM for the second. The first is the more potent here.

Going from ATVSADPL to ATYQRTRA, the IC50 rises from 52 µM to at least 70 µM.

AVPNGTLV and GLQSSDDFA are within 1.5-fold of each other in IC50: 10.8 µM for the first, 11.4 µM for the second.

Compared with TVQIIKLL, WILWISFAIS is 2.3-fold lower in IC50: 43.8 µM for the first, 18.7 µM for the second.

same assay, conditions: source organism: Mammarenavirus choriomeningitidis

For GTMPSLTMAC, the IC50 was 25.3 µM.

same assay, conditions: source organism: Mammarenavirus guanaritoense

YCLDFLFDV showed an IC50 of 17.3 µM.

same assay, conditions: source organism: Vaccinia virus WR

Compared with AARLKRSAT, AATKRYPGVM is 1.6-fold higher in IC50: 12.5 µM for the first, 20.1 µM for the second.

Going from AIDRQVSVKL to AIKQYGDIDL, the IC50 rises from 7.9 µM to 23.4 µM (3-fold). The first is the more potent here.

Going from AIKSNNHLT to AINKCVDIFT, the IC50 falls from 50.7 µM to 25.3 µM (2-fold).

Compared with ALEPRKEIDV, ATQFNFNGHT is 3.4-fold higher in IC50: 8.37 µM for the first, 28.6 µM for the second. The first is the more potent here.

AVSVYGAIT and CLEAKTHFST are within 1.5-fold of each other in IC50: 11.4 µM for the first, 12.4 µM for the second.

First: CTEETKRNIA
Second: CVRLNNPVIL
The IC50 of the first is higher: at least 70 µM for the first, 8.56 µM for the second. The second is the more potent here.

CVRNLEELTT and DAKRNSKSL are within 1.5-fold of each other in IC50: 12.6 µM for the first, 13.7 µM for the second.

Compared with DIDLLFNEKL, DILQMREIIT is 4.1-fold higher in IC50: 11.2 µM for the first, 45.5 µM for the second. The first is the more potent here.

First: DIMLPESDL
Second: DISVNASKTI
The IC50 of the first is 2.5-fold lower: 18.5 µM for the first, 46.8 µM for the second. The first is the more potent here.

DIVSDSKKIM and DLAIKQYGDI are within 1.5-fold of each other in IC50: 25.1 µM for the first, 17.9 µM for the second.

Compared with DLDKVYEIL, DMICCDSRIV is 1.7-fold lower in IC50: 19.6 µM for the first, 11.3 µM for the second. The second is the more potent here.

First: DMLLNVQTL
Second: DVCKKNLDL
The IC50 of the first is 3.4-fold lower: 7.4 µM for the first, 25.4 µM for the second. The first is the more potent here.

Going from DVEKEKFVAT to DVEKRILNT, the IC50 falls from 37.5 µM to 5.82 µM (6.4-fold). The second is the more potent here.

First: DVGCLLTDT
Second: DVGCLLTDTI
The IC50 of the first is higher: at least 70 µM for the first, 10.7 µM for the second. The second is the more potent here.

Going from DVKVLAARL to DVNEEYTEAA, the IC50 rises from 6.23 µM to 46.3 µM (7.4-fold).

EAKTHFSTT and EIDVSEVKT are within 1.5-fold of each other in IC50: 36.6 µM for the first, 46 µM for the second.

First: EIITGNKVKT
Second: ELEKCTSEI
The IC50 of the first is higher: at least 70 µM for the first, 21.1 µM for the second. The second is the more potent here.

ELTNKKYRCM and ELTSNCTRT cannot be ordered by IC50: at least 70 µM for the first, at least 70 µM for the second.

ELVMDKNHAI and EMQLKIDKLT are within 1.5-fold of each other in IC50: 14.2 µM for the first, 9.66 µM for the second.

First: FASADNHPKM
Second: GANGSTAEQL
The IC50 of the first is higher: at least 70 µM for the first, 7.28 µM for the second. The second is the more potent here.

Going from GIDTSNNIA to GTKGKLYIAL, the IC50 falls from 49.7 µM to 9.07 µM (5.5-fold). The second is the more potent here.

IAVFDSKLI and IMECSRMLDT are within 1.5-fold of each other in IC50: 7.85 µM for the first, 5.24 µM for the second.

Going from LLDEPLSPDT to PLTLLIKTL, the IC50 falls from 8.51 µM to 5.27 µM (1.6-fold). The second is the more potent here.

Going from QQNNSFIIST to QTLISLNSM, the IC50 rises from 7 µM to 19.4 µM (2.8-fold).

Compared with SILNNPVDT, VAEHRFENM is 6.6-fold lower in IC50: 47.1 µM for the first, 7.13 µM for the second. The second is the more potent here.

Compared with VVIVENDNVI, YTEAAAATCA is 2.5-fold higher in IC50: 14.7 µM for the first, 36.5 µM for the second.

target: HLA-A*02:03; test: as above; conditions: source organism: Influenza A virus

First: AAFEDLRL
Second: AAFEDLRV
The IC50 of the first is 6.7-fold higher: 48.9 µM for the first, 7.32 µM for the second.

Compared with ALSYSAGA, ALSYSTGA is 2.4-fold higher in IC50: 10.7 µM for the first, 25.8 µM for the second.

First: ATAILRKA
Second: ATALANTI
The IC50 of the first is 1.9-fold higher: 42.3 µM for the first, 22.4 µM for the second. The second is the more potent here.

Compared with ATKRIRMA, ATRRMIQL is higher in IC50: 11.9 µM for the first, at least 70 µM for the second.

ATVSADPL and ATYQRTRA cannot be ordered by IC50: at least 70 µM for the first, at least 70 µM for the second.

First: AVPNGTLV
Second: GLQSSDDFA
The IC50 of the first is higher: at least 70 µM for the first, 18.5 µM for the second. The second is the more potent here.

First: TVQIIKLL
Second: WILWISFAIS
The IC50 of the first is higher: at least 70 µM for the first, 9.09 µM for the second.

same assay, conditions: source organism: Mammarenavirus choriomeningitidis

For GTMPSLTMAC, the IC50 was 16.4 µM.

same assay, conditions: source organism: Mammarenavirus guanaritoense

Work on YCLDFLFDV yielded an IC50 of at least 70 µM.

same assay, conditions: source organism: Vaccinia virus WR

Going from AARLKRSAT to AATKRYPGVM, the IC50 rises from 10.5 µM to 47.9 µM (4.6-fold).

Compared with AIDRQVSVKL, AIKQYGDIDL is 3.5-fold higher in IC50: 13.1 µM for the first, 46.4 µM for the second.

AIKSNNHLT and AINKCVDIFT are within 1.5-fold of each other in IC50: 28.6 µM for the first, 26.4 µM for the second.

ALEPRKEIDV and ATQFNFNGHT are within 1.5-fold of each other in IC50: 11.2 µM for the first, 11.5 µM for the second.

AVSVYGAIT and CLEAKTHFST are within 1.5-fold of each other in IC50: 9.62 µM for the first, 11.1 µM for the second.

Going from CTEETKRNIA to CVRLNNPVIL, the IC50 falls from 50.1 µM to 5.4 µM (9.3-fold). The second is the more potent here.

First: CVRNLEELTT
Second: DAKRNSKSL
The IC50 of the first is 3.3-fold lower: 15.2 µM for the first, 49.7 µM for the second. The first is the more potent here.

Compared with DIDLLFNEKL, DILQMREIIT is 2.1-fold higher in IC50: 26.7 µM for the first, 56.2 µM for the second.

Compared with DIMLPESDL, DISVNASKTI is 3-fold lower in IC50: 35.8 µM for the first, 11.9 µM for the second. The second is the more potent here.

First: DIVSDSKKIM
Second: DLAIKQYGDI
The IC50 of the first is 1.7-fold higher: 57.2 µM for the first, 33.3 µM for the second. The second is the more potent here.

First: DLDKVYEIL
Second: DMICCDSRIV
The IC50 of the first is 4.3-fold higher: 26.3 µM for the first, 6.08 µM for the second.

First: DMLLNVQTL
Second: DVCKKNLDL
The IC50 of the first is 1.6-fold lower: 5.07 µM for the first, 8.02 µM for the second.

Going from DVEKEKFVAT to DVEKRILNT, the IC50 falls from 54.8 µM to 6.72 µM (8.2-fold). The second is the more potent here.

For DVGCLLTDT, the IC50 was 65.4 µM.
